Substitutions are numbered along the chain they refer to. Entries after “also recorded” stand apart in the source; their conditions may differ.
How the values were obtained:
[1] = tested on: hat1Δ yeast; assay: DNA damage sensitivity assay; format: cell-based; settings: synthetic medium in the absence or presence of methyl methane sulfonate (MMS); H3K9,14R allele as sole H3; Supplemental Fig. S4
[2] = tested on: histone H4 (H4K5, H4K12); settings: cited from earlier work; for acetylation site specificity on H4 (literature): in vitro, complex purified from yeast extracts or recombinant yeast Hat1p; for acetylation site specificity on H4 (literature) / enhancement of enzymatic activity of Hat1p: ref Parthun et al. 1996; for enhancement of enzymatic activity of Hat1p: by facilitating H4 association with Hat1p
[3] = tested on: histone H4 in nucleosomes; settings: ref Kleff et al. 1995; Parthun et al. 1996; cited from earlier work
[4] = tested on: histone H4 (H4K5, H4K12); settings: no ref printed in the sentence; cited from earlier work

B1: W197E (protein)
chain: MSANDFKPETWTSSANEALRVSIVGENAVQFSPLFTYPIYGDSEKIYGYKDLIIHLAFDSVTFKPYVNVKYSAKLGDDNIVDVEKKLLSFLPKDDVIVRDEAKWVDCFAEERKTHNLSDVFEKVSEYSLNGEEFVVYKSSLVDDFARRMHRRVQIFSLLFIEAANYIDETDPSWQIYWLLNKKTKELIGFVTTYKYEHYLGAKSFDEDIDKKFRAKISQFLIFPPYQNKGHGSCLYEAIIQSWLEDKSITEITVEDPNEAFDDLRDRNDIQRLRKLGYDAVFQKHSDLSDEFLESSRKSLKLEERQFNRLVEMLLLLNNS
modifications: left off: GST (from the vector pGEX6p-1), end not stated, cleaved
- complementation of DNA damage sensitivity in hat1Δ yeast [1]: able to complement the DNA damage sensitivity in the hat1Δ yeast

B2: Hat1p/Hat2p complex: yeast histone acetyltransferase complex Hat1p/Hat2p (protein)
chain 1: B1 chain with E197W
chain 2: MENQEKPLSVDEEYDLWKSNVPLMYDFVSETRLTWPSLTVQWLPTPVQELDGGFIKQELIIGTHTSGEEENYLKFAEINLPKEILSNEDPQEEAGEEYQSSLPAPRSNIRITAKYEHEEEITRARYMPQDPNIVATINGQGTVFLYSRSEGLQSTLKFHKDNGYALSFSTLVKGRLLSGSDDHTVALWEVGSGGDPTKPVRTWNDLHSDIINDNKWHNFNKDLFGTVSEDSLLKINDVRANNTTIDTVKCPQPFNTLAFSHHSSNLLAAAGMDSYVYLYDLRNMKEPLHHMSGHEDAVNNLEFSTHVDGVVVSSGSDNRLMMWDLKQIGAEQTPDDAEDGVPELIMVHAGHRSSVNDFDLNPQIPWLVASAEEENILQVWKCSHSLPIVGGPPKVNKDIIS
modifications: left off: 6xHis, N-terminal, state not stated
- acetylation site specificity on H4 (literature) [2]: specifically acetylated H4K12 residue; also recorded: highly specific for H4K12

B3: Hat1p: yeast Hat1p (1–320), type B histone acetyltransferase (protein)
chain: B1 chain with E197W
- acetylation site specificity on H4 (literature) [2]: not only able to acetylate H4K12 but also exhibited low activity to H4K5; also recorded: acetylated both H4K5 and H4K12 in vitro
- acetylation of H4K5 and H4K12 (recombinant yeast Hat1, literature) ([2]; recombinant yeast Hat1, no ref printed in the sentence): can acetylate both H4K5 and H4K12
- acetylation of histone H4 in nucleosomes [3]: cannot acetylate histone H4 in nucleosomes

B4: Hat2p: WD40 repeat protein, binding partner of Hat1p (protein)
chain: B2 chain 2
modifications: left off: 6xHis, N-terminal, kept
- enhancement of enzymatic activity of Hat1p [2]: significantly enhanced the enzymatic activity of Hat1p

B5: RbAp46: human homolog of Hat2p, retinoblastoma-binding protein (protein, UniProt Q16576 2-425, looked up)
Histone-binding protein RBBP7: ASKEMFEDTVEERVINEEYKIWKKNTPFLYDLVMTHALQWPSLTVQWLPEVTKPEGKDYALHWLVLGTHTSDEQNHLVVARVHIPNDDAQFDASHCDSDKGEFGGFGSVTGKIECEIKINHEGEVNRARYMPQNPHIIATKTPSSDVLVFDYTKHPAKPDPSGECNPDLRLRGHQKEGYGLSWNSNLSGHLLSASDDHTVCLWDINAGPKEGKIVDAKAIFTGHSAVVEDVAWHLLHESLFGSVADDQKLMIWDTRSNTTSKPSHLVDAHTAEVNCLSFNPYSEFILATGSADKTVALWDLRNLKLKLHTFESHKDEIFQVHWSPHNETILASSGTDRRLNVWDLSKIGEEQSAEDAEDGPPELLFIHGGHTAKISDFSWNPNEPWVICSVSEDNIMQIWQMAENIYNDEESDVTTSELEGQGS
- enhancement of enzymatic activity of Hat1p [2]: significantly enhanced the enzymatic activity of Hat1p

B6: recombinant human: recombinant human Hat1 (protein, UniProt O14929 2-419, looked up)
Histone acetyltransferase …: AGFGAMEKFLVEYKSAVEKKLAEYKCNTNTAIELKLVRFPEDLENDIRTFFPEYTHQLFGDDETAFGYKGLKILLYYIAGSLSTMFRVEYASKVDENFDCVEADDVEGKIRQIIPPGFCTNTNDFLSLLEKEVDFKPFGTLLHTYSVLSPTGGENFTFQIYKADMTCRGFREYHERLQTFLMWFIETASFIDVDDERWHYFLVFEKYNKDGATLFATVGYMTVYNYYVYPDKTRPRVSQMLILTPFQGQGHGAQLLETVHRYYTEFPTVLDITAEDPSKSYVKLRDFVLVKLCQDLPCFSREKLMQGFNEDMVIEAQQKFKINKQHARRVYEILRLLVTDMSDAEQYRSYRLDIKRRLISPYKKKQRDLAKMRKCLRPEELTNQMNQIEISMQHEQLEESFQELVEDYRRVIERLAQE
- acetylation of H4K5 and H4K12 (recombinant human Hat1, literature) [4]: can acetylate both H4K5 and H4K12

Source: paper PMC4052767 (Genes & Development, 2014)
